# Data reported in EP2330125A2.
# T1: CGRP receptor (Homo sapiens (Human)), Q16602
# T1 chain 1: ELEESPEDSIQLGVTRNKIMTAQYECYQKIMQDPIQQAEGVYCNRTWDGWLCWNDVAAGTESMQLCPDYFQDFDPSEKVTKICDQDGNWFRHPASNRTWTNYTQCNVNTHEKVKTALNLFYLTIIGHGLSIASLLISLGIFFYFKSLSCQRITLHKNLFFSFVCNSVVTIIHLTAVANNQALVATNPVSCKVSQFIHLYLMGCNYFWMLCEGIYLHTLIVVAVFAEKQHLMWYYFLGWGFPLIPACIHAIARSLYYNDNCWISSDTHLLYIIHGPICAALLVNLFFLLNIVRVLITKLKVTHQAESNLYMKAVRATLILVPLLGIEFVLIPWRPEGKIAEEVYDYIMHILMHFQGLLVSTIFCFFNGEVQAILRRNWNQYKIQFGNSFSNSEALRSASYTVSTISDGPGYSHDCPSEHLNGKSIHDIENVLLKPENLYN
# T1 chain 2: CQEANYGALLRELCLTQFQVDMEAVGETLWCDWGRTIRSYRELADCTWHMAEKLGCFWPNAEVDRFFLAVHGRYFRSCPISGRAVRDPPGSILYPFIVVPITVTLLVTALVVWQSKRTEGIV
# Key:
# [1] = biological target: calcitonin receptor; assay: calcitonin receptor binding assay
# [2] = biological target: calcitonin receptor; assay: cell-based or functional assay
# [3] = biological target: GLP-1/GIP/CT (receptors of the 'GLP-1/GIP/CT cyclase' assay); assay: cell-based or functional assay
# [4] = biological target: amylin receptor (rat); assay: 125I-amylin displacement, rat nucleus accumbens membranes
# [5] = biological target: amylin receptor (rat); assay: amylin receptor binding assay
# [6] = biological target: calcitonin receptor; assay: CT receptor binding assay
# [7] = biological target: T1, CGRP receptor (Homo sapiens (Human)), …; assay: CGRP receptor binding assay
# Sequence of calcitonin receptor (P30988 whole entry): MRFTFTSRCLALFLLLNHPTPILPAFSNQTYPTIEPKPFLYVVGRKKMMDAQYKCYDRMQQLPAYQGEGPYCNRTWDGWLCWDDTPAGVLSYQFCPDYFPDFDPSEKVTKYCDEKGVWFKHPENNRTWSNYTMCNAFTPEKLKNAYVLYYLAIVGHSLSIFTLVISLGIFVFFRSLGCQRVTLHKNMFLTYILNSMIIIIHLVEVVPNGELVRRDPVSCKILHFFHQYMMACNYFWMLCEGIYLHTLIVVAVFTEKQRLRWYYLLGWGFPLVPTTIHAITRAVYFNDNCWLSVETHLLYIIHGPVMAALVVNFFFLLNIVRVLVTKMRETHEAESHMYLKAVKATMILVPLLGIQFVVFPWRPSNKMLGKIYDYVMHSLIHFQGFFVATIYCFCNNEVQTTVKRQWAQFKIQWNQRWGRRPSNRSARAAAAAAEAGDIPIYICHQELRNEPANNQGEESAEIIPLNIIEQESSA
Binder,Receptor Binding [1],CT cyclase [2],GLP-1/GIP/CT cyclase [3],Receptor Binding [4],IC50 [5],IC50 [6],IC50 [7]
KCNTATCATQRLANFLVRSSNNLGPVLPPTNVGSNTY (modifications not checked) [Rat amylin],3,326,5,0.05,,,
DFMGWMDFGKRKCNTATCATQRLANELVRLQTYPRTNVGSNTY (modifications not checked) [CCK/Amylin-sCT hybrid DF(P-CH2SO3)… …],,,,,0.083 nM,0.044 nM,4.4 nM
"DFMGWMDFGKRKCNTATCATQRLANELVRLQTYPRTNVGSNTY (modifications not checked) [27(p-CH2SO3)-PheCCK8(26-33),G,K,R,15Glu,hAmy(1-17),18Arg,sCT(18-26),hAmy(32-37)]",0.04,,,,,,
"[#Suc-(bAla)-PYY-(3-36), amide] [#NH-Des-Lys1-Rat Amylin, amide] (modifications not checked) chain 1: not shown chain 2: CNTATCATQRLANFLVRSSNNLGPVLPPTNVGSNTY",46,645,,,,,
